Starred links: 1 amine or outer side, 2 acyl side, 3 side chain; linkers in the order of their positions; H or OH if unused. Positions of bridges follow the written chain, without caps; N, C: chain ends. Non-standard residues stand in square brackets, D forms with d. Primed or numbered codes have the meaning given here. PyrS2(3) = (S)-3-amino-1-((pent-4-en-1-yloxy)carbonyl)pyrrolidine-3-carboxylic acid, stapling residue, C=CCCCOC(=O)N1CC[C@@](N[*:1])(C(=O)[*:2])C1; PyrS2″ = (S)-3-amino-1-((pent-4-en-1-yloxy)carbonyl)pyrrolidine-3-carboxylic acid (stapling residue), C=CCCCOC(=O)N1CC[C@@](N[*:1])(C(=O)[*:2])C1; TfeGA = (S)-2-amino-3-((carboxymethyl)(2,2,2-trifluoroethyl)amino)propanoic acid, O=C([C@H](CN(CC(=O)[*:3])CC(F)(F)F)N[*:1])[*:2]; EtGA = (S)-2-amino-3-((carboxymethyl)(ethyl)amino)propanoic acid, CCN(CC(=O)[*:3])C[C@H](N[*:1])C(=O)[*:2]; B5(3) = 2,2-bis(4-pentenyl)glycine (stitching residue), C=CCCCC(CCCC=C)(N[*:1])C(=O)[*:2]; B5″ = 2,2-bis(4-pentenyl)glycine, stitching residue, C=CCCCC(CCCC=C)(N[*:1])C(=O)[*:2]; Bta = N[C@@H](Cc1csc2ccccc12)C(=O)O; αAllylPro = C=CC[C@@]1(C(=O)O)CCCN1; tBuAla = CC(C)(C)C[C@H](N)C(=O)O; 3Thi = N[C@@H](Cc1ccsc1)C(=O)O
T1: B-cat-Halo (UniProt P35222 1-781)
T1 sequence (looked up): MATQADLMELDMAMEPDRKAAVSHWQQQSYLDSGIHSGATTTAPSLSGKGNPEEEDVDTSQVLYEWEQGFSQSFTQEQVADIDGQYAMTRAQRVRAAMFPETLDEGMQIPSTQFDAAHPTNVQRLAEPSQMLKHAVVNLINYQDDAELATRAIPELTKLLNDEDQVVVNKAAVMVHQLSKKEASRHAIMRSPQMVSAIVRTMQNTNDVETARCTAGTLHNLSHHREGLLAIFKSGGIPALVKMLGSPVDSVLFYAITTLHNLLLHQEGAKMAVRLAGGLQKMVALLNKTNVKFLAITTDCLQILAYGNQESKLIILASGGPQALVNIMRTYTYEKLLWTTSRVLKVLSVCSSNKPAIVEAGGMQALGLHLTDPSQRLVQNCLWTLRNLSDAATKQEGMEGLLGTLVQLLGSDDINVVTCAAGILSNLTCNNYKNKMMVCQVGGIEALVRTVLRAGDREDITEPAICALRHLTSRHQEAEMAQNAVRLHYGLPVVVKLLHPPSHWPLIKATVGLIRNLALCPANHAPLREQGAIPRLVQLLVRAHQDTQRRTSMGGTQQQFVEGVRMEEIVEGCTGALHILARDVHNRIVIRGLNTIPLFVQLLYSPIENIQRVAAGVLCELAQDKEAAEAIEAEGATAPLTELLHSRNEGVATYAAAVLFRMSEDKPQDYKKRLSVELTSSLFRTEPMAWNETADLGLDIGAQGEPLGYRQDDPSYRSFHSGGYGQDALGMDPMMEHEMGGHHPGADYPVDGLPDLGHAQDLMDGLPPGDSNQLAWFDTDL

T2: beta-catenin in DLD1 TCF/LEF luciferase reporter cells (UniProt P35222 2-781)
T2 sequence (looked up): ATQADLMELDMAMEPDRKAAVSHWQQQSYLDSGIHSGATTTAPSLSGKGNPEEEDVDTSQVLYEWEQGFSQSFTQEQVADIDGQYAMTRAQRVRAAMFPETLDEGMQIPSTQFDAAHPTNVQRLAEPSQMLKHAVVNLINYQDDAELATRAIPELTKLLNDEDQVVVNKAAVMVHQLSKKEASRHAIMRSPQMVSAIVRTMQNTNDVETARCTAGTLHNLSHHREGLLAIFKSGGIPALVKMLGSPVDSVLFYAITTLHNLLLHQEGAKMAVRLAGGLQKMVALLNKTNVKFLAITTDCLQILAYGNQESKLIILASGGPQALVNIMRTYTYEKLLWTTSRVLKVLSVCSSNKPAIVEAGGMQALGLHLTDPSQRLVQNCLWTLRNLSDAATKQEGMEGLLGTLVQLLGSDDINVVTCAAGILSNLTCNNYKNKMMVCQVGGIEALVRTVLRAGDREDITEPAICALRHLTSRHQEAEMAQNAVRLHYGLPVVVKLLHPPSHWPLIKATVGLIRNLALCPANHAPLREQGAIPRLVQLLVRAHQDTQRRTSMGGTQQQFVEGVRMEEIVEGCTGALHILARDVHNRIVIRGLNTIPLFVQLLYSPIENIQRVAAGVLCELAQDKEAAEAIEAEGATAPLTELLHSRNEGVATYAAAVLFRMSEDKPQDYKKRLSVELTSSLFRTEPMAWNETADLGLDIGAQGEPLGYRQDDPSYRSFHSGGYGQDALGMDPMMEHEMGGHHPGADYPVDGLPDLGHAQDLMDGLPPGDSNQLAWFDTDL

T3: B-cat-Halo (NanoBRET construct expressed in HEK293 cells) (UniProt P35222 1-781, HaloTag NanoBRET 618 Ligand bound in the assay)
T3 sequence (looked up): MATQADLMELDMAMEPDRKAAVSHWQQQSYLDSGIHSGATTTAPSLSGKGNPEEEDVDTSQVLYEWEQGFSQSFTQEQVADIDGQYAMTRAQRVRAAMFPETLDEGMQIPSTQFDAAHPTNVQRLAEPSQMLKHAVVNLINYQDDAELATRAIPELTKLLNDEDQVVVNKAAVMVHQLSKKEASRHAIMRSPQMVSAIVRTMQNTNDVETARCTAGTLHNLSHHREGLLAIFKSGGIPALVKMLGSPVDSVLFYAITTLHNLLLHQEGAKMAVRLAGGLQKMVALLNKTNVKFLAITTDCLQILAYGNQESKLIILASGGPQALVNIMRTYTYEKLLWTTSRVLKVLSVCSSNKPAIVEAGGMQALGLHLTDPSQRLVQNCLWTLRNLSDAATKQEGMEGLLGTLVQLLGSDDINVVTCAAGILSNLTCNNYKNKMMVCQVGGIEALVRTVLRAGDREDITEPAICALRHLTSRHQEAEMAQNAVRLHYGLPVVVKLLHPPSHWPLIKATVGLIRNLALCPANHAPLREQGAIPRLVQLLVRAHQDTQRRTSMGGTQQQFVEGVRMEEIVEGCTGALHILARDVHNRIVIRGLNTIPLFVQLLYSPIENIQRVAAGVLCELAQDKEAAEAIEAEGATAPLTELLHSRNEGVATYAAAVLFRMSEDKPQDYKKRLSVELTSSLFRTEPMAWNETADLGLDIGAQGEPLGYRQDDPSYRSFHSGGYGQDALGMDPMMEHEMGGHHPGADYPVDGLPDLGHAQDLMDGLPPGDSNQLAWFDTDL

T4: beta-catenin (in DLD1 TCF/LEF luciferase reporter cells) (UniProt P35222 1-781)
T4 sequence (looked up): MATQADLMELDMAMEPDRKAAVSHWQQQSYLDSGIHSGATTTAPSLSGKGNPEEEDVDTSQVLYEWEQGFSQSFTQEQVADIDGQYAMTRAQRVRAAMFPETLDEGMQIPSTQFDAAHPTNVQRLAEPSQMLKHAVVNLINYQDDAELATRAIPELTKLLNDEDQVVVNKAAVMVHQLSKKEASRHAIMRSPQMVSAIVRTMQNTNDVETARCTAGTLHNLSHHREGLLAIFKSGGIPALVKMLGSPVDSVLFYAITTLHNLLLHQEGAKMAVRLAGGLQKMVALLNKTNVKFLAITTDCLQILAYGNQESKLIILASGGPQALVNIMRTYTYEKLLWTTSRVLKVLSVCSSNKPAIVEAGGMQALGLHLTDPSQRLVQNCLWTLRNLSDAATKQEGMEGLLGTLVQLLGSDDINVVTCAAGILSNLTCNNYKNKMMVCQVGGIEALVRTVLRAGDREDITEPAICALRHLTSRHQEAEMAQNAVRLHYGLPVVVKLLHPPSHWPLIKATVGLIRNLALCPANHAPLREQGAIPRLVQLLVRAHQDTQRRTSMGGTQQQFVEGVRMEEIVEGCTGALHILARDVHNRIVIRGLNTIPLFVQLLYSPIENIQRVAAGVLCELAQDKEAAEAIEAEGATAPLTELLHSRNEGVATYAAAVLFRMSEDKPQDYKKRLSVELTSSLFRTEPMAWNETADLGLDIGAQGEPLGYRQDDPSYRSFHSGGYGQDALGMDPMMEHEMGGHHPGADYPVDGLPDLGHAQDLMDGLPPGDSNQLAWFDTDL


What was measured:
Assay in all cases: cell-based or functional assay
B-cat-Halo = biological target: T1, B-cat-Halo
[1] = biological target: T2, beta-catenin in DLD1 TCF/LEF luciferase …
[2] = biological target: T3, B-cat-Halo (NanoBRET construct …)
[3] = biological target: T4, beta-catenin (in DLD1 TCF/LEF …)

NanoBRET Abs IC50 (B-cat-Halo) [µM]	DLD1 4% Abs IC50 [1] [µM]	NanoBRET Abs IC50 [2] [µM]	DLD1 4% Abs IC50 [3] [µM]	Binder
19	10.1			Ac-[αAllylPro]D[tBuAla][B5(3)]D[EtGA]AAFL[PyrS2″][3Thi][Bta]Q-NH2 (staple 1-4, 4-11; also: later-eluting HPLC isomer) [I-973]
		14	7.9	Ac-[αAllylPro]D[tBuAla][B5″]D[TfeGA]AAFN[PyrS2(3)][3Thi][Bta]Q-NH2 (staple 1-4, 4-11) [I-762]

Source: US20240116985A1 (published 2024)
